Data: US20190194323A1 (ALLAKOS, published 2019)
Positions count from the first letter of the chain named.

B1: monoclonal antibody 8A2 (antibody, V domains shown)
VH: QVQLKESGPGLVAPSQSLSITCTVSGFSLTTYGVDWVRQFPGKGLEWLGVIWGGGNTNYNSALMSRLSISKDTSKSQVFLKMNSLQTDDTAMYYCAKHKGTSHAMEYWGQGTSVTVSS
VL: QIVLTQSPAIMSASPGEKVTMTCSASSRVIFMYWYQQKPGSSPRLLIYDTSNLASGVPVRFSGGGSGTSYSLTISRMEAEDAATYYCQQWSSYPPTFGAGTKLELK
B2: anti-Siglec-7 antibody 4B12 (antibody, V domains shown)
VH: EVQLQQSGPELVKPGASVKIPCKASGYTFTDYNMDWVKQSHEKSLEWIGDIDPHNGVTLYNQKFKDKATLTIDKSSNTAYMELRSLTSEDSAVYYCALTGSTYWGQGTLVTVSA
VL: DIVMTQSQKFMSTSVGDRVSVTCKASQNVGTNVAWYQQKPGQSPKAVIYSASYRNSGVPDRFTGSGSGTDFTLTISNVQSEDLTEYFCQQYNNYPYTFGGGTKLEIK
notes: Used as an AF647 conjugate for detection in the internalization assay; also called 4B12-AF647
B3: humanized 16H11-derived Fab, VH AK417-17 / VL AK418-2 (Fab, V domains shown)
VH: QVQLVQSGAEVKKPGSSVKVSCKASGYDFSNFWMNWVRQAPGQGLEWMGGIYPGDGEINYAQKFQGRVTITADESTSTAYMELSSLRSEDTAVYYCARDDYLRAMDIWGQGTMVTVSS
VL: DIQMTQSPSSLSASVGDRVTITCRASGNIHNYLAWYQQKPGKAPKFLLYSAKRLESGVPSRFSGSGSGTDYTLTISSLQPEDFATYYCQHFWSSPYTFGGGTKVEIK
notes: Measured as monovalent Fab; also called No. 2; No. 12
B4: humanized 16H11-derived Fab, VH AK417-17 / VL AK419-2 (Fab, V domains shown)
VH: B3 VH
VL: B3 VL with G27Q
notes: Measured as monovalent Fab; also called No. 6; No. 13
B5: humanized 16H11-derived Fab, VH AK417-17 / VL AK435-7 (Fab, V domains shown)
VH: B3 VH
VL: B3 VL with G27Q, S56D
notes: Measured as monovalent Fab; also called No. 14; No. 20
B6: monoclonal antibody 3F1 (antibody, V domains shown)
VH: EFQLQQSGPEMVKPGASVKMSCKASGDSFTDYKINWVKQNNGKSLEWIGVINPDSGTTSYNQIFEGKATLTVDQSSSTAYMQVNRLTSEDSAVYYCTTWDDYSFYAMDYWGQGTSVTVSS
VL: DVLMTQTPLSLPVSLGDQASISCRSSQNIVHSNGNTYLEWFLQKPGQSPKLLIYKVSNRFSGVPDRFSGSGSGTDFTLKISRVEAEDLGVYYCFQGSHIPWTFGGGTKLEIK
B7: 13D2 (antibody, V domains shown)
VH: DVQLQESGPGMVKPSQSLSLTCTVTGYSITSDYDWHWIRHFPGNKLEWMGYISYSGSTKYNPSLKSRISITHDTSKNHFFLKLNSVTAEDTATYYCARENDFPGFWYFDVWGTGTTVTVSS
VL: DIVMSQSPSSQVVSVGEKVTVTCTSSQSLLYGTNQKNYLAWYQQKPGQSPKLLIYWASIRESGVPDRFTGSGSGTDFTLTISSVKAEDLAVYYCQQYYSYPLTFGAGTKLELK
B8: 2G12 (antibody, V domains shown)
VH: QVQLQQPGAELVKPGASVKLSCKASGYTFTSYWMQWVKQRPGQGLEWIGEIDPSVSYTEYNQKFKGKATLTVDTSSSTAYMQLSSLTSEDSAVYFCARWSKDYYGMDYWGQGTSVTVSS
VL: DIVLTQSHKFMSTSVGDRVTITCKASQDVSTAVAWYQQKPGQSPKLLIYWTSTRHTGVPDRFTGSGSGTDHTLTISSVQAEDLALYYCHQQYSTPPTFGGGTKLEIK
B9: 10E11 (antibody, V domains shown)
VH: EVQLQQSGPELVKPGDSVKISCKASGYSSTGYFMNWVMQSHGKSLEWIGRIIPYNGDTFYNQKFKDKATLTVDKSSNTAHLELRSLTSEDSVVYYCAGPRIGGDYDGGSWLAYWGQGTLVTVSA
VL: DIVMTQSQKFMSTTVGDRVSITCKASQNVGTAVAWYQQKPGHSPKLLIYSASNRYTGVPDRFTGSGYGTDFTLTISNMQSEDLADYFCQQYNSYPLTFGAGTKLELK
B10: 5G10 (antibody, V domains shown)
VH: EVKLEESGGGLVQPGGSMKVSCVASGFTFSNYWMNWVRQSPEKGLEWVAQIRLKSDNYATHYAESVKGRFTISRDDSKSSVYLQMNNLRAEDTGIYYCTEGDYDIFAYWGQGTLVTVSA
VL: DIQMTQTTSSLSASLGDRVTISCSASQGITNYLNWYQQKPDGTVKLLIYYTSILHSGVPSRFSGSGSGTDYSLTISNLEPEDIATYYCQQYSKPPYTFGGGTKLEIK
B11: 5D1 (antibody)
heavy chain variable region: QVQLQQPGAELVKPGASVKMSCKASGYTFTSSWITWVKDRPGQGLEWIGDIYPGNGNTNYNEKFKSKATLTVDTSSNTVYMQLSSLTSEDSAVHYCARDGRGYFDYWGPGTTLTVSS
light chain variable region: DIQMTQTTSSLSASLGDRVTIICRASQDISNFLNWYQQKPDGTVKLLMYDTSILQSGVPSRFSGRGSGADYSLTINNLEQEDLATYFCQQGKTLPYTFGGGTKLEIK
B12: monoclonal antibody 16H11 (antibody, V domains shown)
VH: QVQLHQSGAELVKPGASVKISCKGSGYDFSNFWMNWVKQRPGKGLEWIGQIYPGDGEIKYNGKFKGKATLTADESSSTAYIHLSSLTSEDSAVYFCARDDYLRAMDYWGQGTSVTVSS
VL: DIQMTQSPASLSASVGETVTITCRASGNIHNYLAWFQQKQGKSPHFLVYSAKALADGVPSRFSGSGSGTQYSLKINSLQPEDFGTYYCQHFWSSPYTFGGGTKLEIK
notes: Parental antibody; The Methods capture antibodies on anti-mouse sensors
B13: 9D4 (antibody)
heavy chain variable region: QVTLKESGPGILQPSQTLSLTCSFSGFSLSTFGMGVGWIRQPSGKGLEWLAHIWWDDDKYYHPALKSRLTISKDTSNNQVFLKIANVDTAETATFYCARVERGYPLDHWGQGTTLRVSS
light chain variable region: DIVLTQSPASLAVSLGQRATISCRASQSVSSSSYSYMHWYQQKPGQPPKLLIKYASNLKSGVPARFSGSGSGTDFTLTIHPVEEEDTATYYCQHSWEIPPTFGGGTKLEIK

Key:
[1] = target: T1, Siglec-7-ECD-Fc (human, UniProt Q9Y286 19-353); experiment: ligand blocking on cells, flow cytometry: antibody dilutions pre-mixed with 10 nM Siglec-7-ECD-Fc, then binding of Siglec-7-ECD-Fc to Siglec-7 ligands on A375 melanoma cells
T1 construct: also called recombinant Siglec-7-Fc fusion protein; Siglec-7-Fc; not shown: human Fc (huFc)
Method: Recombinant Siglec-7-Fc was added to A375 cells in the presence of anti-Siglec-7 antibodies at increasing concentrations and binding of the complex was detected on the cell surface.
Human melanoma cell line A375, which expresses high level of ligands for Siglec-7, was used to determine the blocking activity of anti-Siglec-7 antibodies in a cell based assay. Two-fold serial dilutions of anti-Siglec-7 antibodies (40 nM to 40 pM) were combined with 10 nM Siglec-7-ECD-Fc in FACS buffer (PBS/2% BSA) and incubated on ice for 30 minutes. 2.5×10e4 A375 cells per well were added to round bottom 96-well tissue culture plates in FACS buffer, plates were centrifuged at 400 g for 2 min, supernatant was removed and cells were re-suspended in 100 ul of the antibody-Siglec-7 complexes. After a 1 hour incubation on ice, cells were washed twice and incubated for 30 minutes with goat anti-human F(ab′)₂ fragment conjugated to AF647 (Jackson IR labs) at 1 ug/ml in FACS buffer. After two more washes, cells were fixed in PBS/2% PFA and acquired on a Novocyte flow cytometer (ACEA biosciences). IC₅₀ values for blocking were determined based on plotting mean fluorescence in the APC channel and analysis using Prism Graphpad software.

[2] = target: T2, Siglec-7-ECD (human, UniProt Q9Y286 19-353); experiment: bio-layer interferometry (ForteBio): antibody captured on the sensor, Siglec-7-ECD as analyte, 1:1 global fit
T2 construct: also called p75; AIRM
Method: A panel of antibodies was evaluated for binding to Siglec-7. The results identified anti-Siglec-7 antibodies that have improved KD values compared to commercially available anti-Siglec-7 antibodies (FIG. 7).
Antibody binding analysis was carried out by bio-layer interferometry (ForteBio). […] Antibodies were captured on anti-mouse kinetic sensors at 0.5 ug/mL; Siglec-7-ECD was used as analyte and diluted in assay buffer from 50 nM to 1.56 nM with 2× dilutions. Two-minute associations were conducted, followed by 10-minute dissociations. Results were determined relative to a control empty reference AHC sensor, and analyzed using ForteBio analysis software with 1:1 global fit parameters.

[3] = target: Siglec-7 on primary human cells (NK cells, CD8+ tumor-infiltrating T cells) (human) (UniProt Q9Y286)
[4] = target: T2, Siglec-7-ECD; experiment: value quoted in the legend box of the internalization graph; same value as in the Figure 7 table (bio-layer interferometry)
[5] = target: Siglec-7 on primary human cells (NK cells, CD8+ tumor-infiltrating T cells) (human) (UniProt Q9Y286); remark: listed apart in the source
[6] = target: T3, Siglec-7 on primary human cells (NK cells, CD8+ tumor-infiltrating T cells) (human, UniProt Q9Y286 19-467); experiment: cell-based or functional assay
[7] = target: T2, Siglec-7-ECD; experiment: monovalent Fab; bio-layer interferometry (ForteBio) per Methods; No. 12 of Table 1 (second entry of the pair; No. 2 gives 250-500)
[8] = target: T2, Siglec-7-ECD; experiment: monovalent Fab; bio-layer interferometry (ForteBio) per Methods
[9] = target: T2, Siglec-7-ECD; experiment: monovalent Fab; bio-layer interferometry (ForteBio) per Methods; No. 13 of Table 1 (second entry of the pair; No. 6 also gives >500)
[10] = target: T2, Siglec-7-ECD; experiment: monovalent Fab; bio-layer interferometry (ForteBio) per Methods; lower end of the range 250-500; No. 20 of Table 1
[11] = target: T2, Siglec-7-ECD; experiment: monovalent Fab; bio-layer interferometry (ForteBio) per Methods; upper end of the range 250-500; No. 20 of Table 1
[12] = target: T3, Siglec-7 on primary human cells (NK …); experiment: cell-based or functional assay; remark: listed apart in the source

T2 sequence (Q9Y286 19-353 limits assumed): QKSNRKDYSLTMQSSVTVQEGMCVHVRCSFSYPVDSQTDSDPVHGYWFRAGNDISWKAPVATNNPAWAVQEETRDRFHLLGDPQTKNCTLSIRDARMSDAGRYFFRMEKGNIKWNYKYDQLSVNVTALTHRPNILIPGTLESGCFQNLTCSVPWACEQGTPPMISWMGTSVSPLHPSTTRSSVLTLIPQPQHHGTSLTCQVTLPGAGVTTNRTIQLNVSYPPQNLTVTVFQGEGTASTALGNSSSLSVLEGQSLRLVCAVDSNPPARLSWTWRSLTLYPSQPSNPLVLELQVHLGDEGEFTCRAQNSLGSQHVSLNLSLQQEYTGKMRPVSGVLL
T1 sequence (Q9Y286 19-353): as the sequence (Q9Y286 19-353 limits assumed) above
T3 sequence (Q9Y286 19-467 limits assumed): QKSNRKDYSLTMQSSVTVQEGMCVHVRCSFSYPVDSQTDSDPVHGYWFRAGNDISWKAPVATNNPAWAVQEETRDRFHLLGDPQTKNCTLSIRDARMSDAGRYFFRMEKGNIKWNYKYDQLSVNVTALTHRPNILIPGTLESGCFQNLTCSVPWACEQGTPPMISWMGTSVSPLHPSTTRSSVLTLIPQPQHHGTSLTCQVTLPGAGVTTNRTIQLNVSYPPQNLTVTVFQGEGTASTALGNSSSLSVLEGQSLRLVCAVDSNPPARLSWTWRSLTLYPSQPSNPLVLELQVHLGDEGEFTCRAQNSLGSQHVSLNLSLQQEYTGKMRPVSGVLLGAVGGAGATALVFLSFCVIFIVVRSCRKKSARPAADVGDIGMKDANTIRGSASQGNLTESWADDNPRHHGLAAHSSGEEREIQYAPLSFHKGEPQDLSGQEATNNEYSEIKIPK
Siglec-7 on primary human cells (NK cells, CD8+ tumor-infiltrating T cells) (human), sequence (Q9Y286 19-467 limits assumed): as above

| Molecule | IC50 [1] | Kd [2] | IC50 of Siglec-7 internalization on NK cells (24 h, PBMC; remaining surface Siglec-7 stained with 4B12-AF647) [6] | further results |
| --- | --- | --- | --- | --- |
| QA79 (antibody) | 7.49 nM | 0.706 nM | – | IC50 of Siglec-7 internalization on NK cells (24 h, PBMC; remaining surface Siglec-7 stained with 4B12-AF647) [3]: 0.326 nM |
| anti-Siglec-7 antibody clone S7.7 (BioLegend) | 4.26 nM | 0.422 nM | – | Kd [4]: 0.422 nM; IC50 (read off the curve) [5]: 0.07 mg/L; IC50 of Siglec-7 internalization on NK cells (24 h, PBMC; remaining surface Siglec-7 stained with 4B12-AF647) [3]: 0.469 nM |
| B1 | – | 0.001 nM | 0.0149 nM | – |
| B2 | – | 0.26 nM | – | – |
| B3 | – | – | – | Kd [7]: > 0.5 nM; Kd [8]: 0.25 to 0.5 nM |
| B4 | – | – | – | Kd [9]: > 0.5 nM; Kd [8]: > 0.5 nM |
| B5 | – | – | – | Kd [10]: ≥ 0.25 nM; Kd [11]: ≤ 0.5 nM; Kd [8]: > 0.5 nM |
| B6 | 8.5 nM | 0.041 nM | 0.013 nM | Kd [4]: 0.041 nM; IC50 (read off the curve) [12]: ~0.001 mg/L |
| B7 | – | – | 0.0175 nM | – |
| B8 | 19.8 nM | 0.205 nM | 0.0673 nM | – |
| B9 | 6.23 nM | 0.522 nM | 0.0493 nM | – |
| B10 | 3.07 nM | 0.001 nM | 0.206 nM | – |
| B11 | – | 0.001 nM | 0.0206 nM | – |
| B12 | 7.42 nM | 0.035 nM | 0.0106 nM | – |
| B13 | 1.41 nM | 0.76 nM | 0.0875 nM | – |
